Experimental findings from PMC4605309 are described below.

The target in data set [1] is T1, Smad5 MH1 (Mus musculus, UniProt P97454 1-143). As to the kind of experiment: EMSA. On the technique in general: In EMSA bound probe runs differently from free probe, usually more slowly.
Data set [2] deals with T1, Smad5 MH1. Briefly: EMSA. The source holds these as a separate data set.

Where two headings read alike, the source gives them in different places.

T1 sequence (P97454 1-143): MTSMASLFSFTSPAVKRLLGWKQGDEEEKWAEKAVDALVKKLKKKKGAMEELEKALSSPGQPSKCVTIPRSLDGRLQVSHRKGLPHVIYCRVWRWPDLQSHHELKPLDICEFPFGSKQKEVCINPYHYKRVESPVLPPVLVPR

B1: Smad7 promoter DNA (dsDNA)
DNA 1: CCAGCCAGCCAGCCGGCGCCAC
DNA 2: GTGGCGCCGGCTGGCTGGCTGG
As to B1, in data set [1], the binding result was “binds”.

B2: Bambi enhancer DNA (dsDNA)
DNA 1: AGTGTCGTCTCGTTGGCGCCGGGTGC
DNA 2: GCACCCGGCGCCAACGAGACGACACT
For B2, the binding result in data set [1] is on record as “binds”.

B3: Id2 promoter DNA (dsDNA)
DNA 1: CCTGGCGCCAGAGAGTCTGC
DNA 2: GCAGACTCTCTGGCGCCAGG
B3: in data set [2], the binding result is given as “binds”.
